According to publication PMC10813790, “Lymphocyte-Specific Protein 1 Regulates Expression and Stability of Endothelial Nitric Oxide Synthase” (Biomolecules, 2024):

Target: the molecule itself
Experiment: low-temperature SDS-PAGE; aorta lysates of WT and LSP1-KO mice in NP40-based non-denaturing buffer (crude or after eNOS immunoprecipitation), not boiled, no reducing agent, 7% gel at 4 °C; anti-eNOS immunoblot; dimer to monomers

B1: endothelial nitric oxide synthase (eNOS), mouse, native (enzyme, mouse (endogenous in aorta), UniProt P70313 1-1202, looked up)
chain: MGNLKSVGQEPGPPCGLGLGLGLGLCGKQGPASPAPEPSQAPAPPSPTRPAPDHSPPLTRPPDGPRFPRVKNWEVGSITYDTLSAQAQQDGPCTSRRCLGSLVFPRKLQSRPTQGPSPTEQLLGQARDFINQYYNSIKRSGSQAHEQRLQEVEAEVAATGTYQLRESELVFGAKQAWRNAPRCVGRIQWGKLQVFDARDCRTAQEMFTYICNHIKYATNRGNLRSAITVFPQRCPGRGDFRIWNSQLIRYAGYRQQDGSVRGDPANVEITELCIQHGWTPGNGRFDVLPLLLQAPDEPPELFTLPPEMVLEVPLEHPTLEWFAALGLRWYALPAVSNMLLEIGGLEFPAAPFSGWYMSSEIGMRDLCDPHRYNILEDVAVCMDLDTRTTSSLWKDKAAVEINVAVLHSYQLAKVTIVDHHAATASFMKHLENEQKARGGCPADWAWIVPPISGSLTPVFHQEMVNYFLSPAFRYQPDPWKGSAAKGAGITRKKTFKEVANAVKISASLMGTVMAKRVKATILYGSETGRAQSYAQQLGRLFRKAFDPRVLCMDEYDVVSLEHEALVLVVTSTFGNGDPPENGESFAAALMEMSGPYNSSPRPEQHKSYKIRFNSVSCSDPLVSSWRRKRKESSNTDSAGALGTLRFCVFGLGSRAYPHFCAFARAVDTRLEELGGERLLQLGQGDELCGQEEAFRGWAQAAFQAACETFCVGEDAKAAARDIFSPKRSWKRQRYRLSTQAESLQLLPGLTHVHRRKMFQATILSVENLQSSKSTRATILVRLDTGGQEGLQYQPGDHIGVCPPNRPGLVEALLSRVEDPPPSTEPVAVEQLEKGSPGGPPPGWVRDPRLPPCTLRQALTYFLDITSPPSPRLLRLLSTLAEESSEQQELEALSQDPRRYEEWKWFSCPTLLEVLEQFPSVALPAPLILTQLPLLQPRYYSVSSAPSAHPGEIHLTIAVLAYRTQDGLGPLHYGVCSTWMSQLKAGDPVPCFIRGAPSFRLPPDPNLPCILVGPGTGIAPFRGFWQDRLHDIEIKGLQPAPMTLVFGCRCSQLDHLYRDEVLDAQQRGVFGQVLTAFSRDPGSPKTYVQDLLRTELAAEVHRVLCLEQGHMFVCGDVTMATSVLQTVQRILATEGGMELDEAGDVIGVLRDQQRYHEDIFGLTLRTQEVTSRIRTQSFSLQERQLRGAVPWSFDPPGPEIPGS
notes: mouse endothelial nitric oxide synthase, native protein of the aorta; dimer band at 260 kDa; Written as the protomer, for the row of the protein with itself; also called mouse eNOS; WT eNOS; source: endogenous, aorta lysate of 129/SvJ wild-type mice (also LSP1-KO mice)
  stoichiometry N: 2
